Measurements: US20080311122A1 (AstraZeneca / MedImmune, published 2008)

T1: recombinant HMG1 purified from E. coli as a calmodulin binding protein (CBP) fusion protein (human, UniProt A9RA84 1-215 (Papio anubis entry))
T1 construct: also called rHMG1; rHMGB1
T1 sequence: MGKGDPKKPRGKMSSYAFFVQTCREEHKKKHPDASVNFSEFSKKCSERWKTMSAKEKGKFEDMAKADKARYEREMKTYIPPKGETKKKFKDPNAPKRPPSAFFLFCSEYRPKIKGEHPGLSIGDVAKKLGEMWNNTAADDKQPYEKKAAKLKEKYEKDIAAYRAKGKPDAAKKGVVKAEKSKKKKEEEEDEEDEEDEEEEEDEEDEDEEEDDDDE

T2: HMG1 purified from bovine (calf) thymus (bovine, UniProt P10103 2-215)
T2 construct: also called Calf thymus HMGB1; thymus HMG1
T2 sequence (looked up): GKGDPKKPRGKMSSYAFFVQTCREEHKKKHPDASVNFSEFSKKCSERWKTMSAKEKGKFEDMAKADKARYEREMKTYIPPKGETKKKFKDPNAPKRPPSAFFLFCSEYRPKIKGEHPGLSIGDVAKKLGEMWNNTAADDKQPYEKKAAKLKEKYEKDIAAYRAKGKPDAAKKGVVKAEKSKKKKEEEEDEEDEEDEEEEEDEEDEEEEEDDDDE

T3: HMG1 B Box peptide amino acids 91-169
T3 construct: also called HMG1 peptide 91-169
T3 peptide: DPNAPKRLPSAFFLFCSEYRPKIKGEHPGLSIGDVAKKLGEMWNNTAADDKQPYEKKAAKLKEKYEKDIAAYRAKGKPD

T4: HMG1 B Box peptide amino acids 150-183
T4 peptide: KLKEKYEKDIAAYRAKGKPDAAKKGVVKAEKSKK

T5: HMG2 (UniProt P40673 2-209, limits assumed)
T5 construct: also called HMGB2; HMBG2
T5 sequence (looked up): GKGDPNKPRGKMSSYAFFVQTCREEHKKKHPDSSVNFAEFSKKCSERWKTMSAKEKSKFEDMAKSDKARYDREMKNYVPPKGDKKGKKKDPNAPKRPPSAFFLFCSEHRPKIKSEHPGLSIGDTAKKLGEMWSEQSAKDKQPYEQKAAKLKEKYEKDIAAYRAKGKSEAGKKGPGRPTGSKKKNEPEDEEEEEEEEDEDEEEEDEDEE

B1: anti-HMG1 antibody G9 (antibody, V domains shown)
VH: EVQLLESGGGLVQPGGSLRLSCAASGFTFSSYDMFWVRQAPGKGLEWVSRISPSGGYTYYADSVKGRFTISRDNSKNTLYLQMNSLRAEDTAVYYCARLRYFDSRGYAFDIWGQGTMVTVSS
VL: DIQMTQSPGTLSLSPGERATLSCRASQSVRSSYLAWYQQKPGQAPRLLIYGASTRATGIPDRFSGSGSGTDFTLTISRLEPEDFAVYYCQQYGTSRWTFGQGTKVEIK
B2: anti-HMG1 antibody G12 (antibody, V domains shown)
VH: EVQLLESGGGLVQPGGSLRLSCAASGFTFSYYMMTWVRQAPGKGLEWVSSISPSGGYTIYADSAKGRFTISRDNSKNTLYLQMNSLRAEDTAVYYCARALSTGSFWDYWGQGTLVTVSS
VL: DIQMTQSPGTLSLSPGERATLSCRASESLTSTYVAWYQHKPGQAPRLLIHGGSTRATGIPVRFSGSGSGTDFTLTIATLEPEDFAVYYCQQYGSSPYTFGQGTKLEIK
B3: anti-HMG1 antibody G20 (antibody, V domains shown)
VH: EVQLLESGGGLVQPGGSLRLSCAASGFTFSWYDMFWVRQAPGKGLEWVSWISPSGGYTKYADSVKGRFTISRDNSKNTLYLQMNSLRAEDTAMYYCARSGLDYYDSSGYLDAFDIWGQGTMVTVSS
VL: DIQMTQSPSSVSASVGDRVTITCRASQDVSIWLAWYQQKPGKAPKLLIFGASRLQSGVPSRFSGSRSGADFTLTIDSVQPEDFASYYCQQADSFPLTFGGGTKVEIK
B4: anti-HMG1 antibody G34 (antibody, V domains shown)
VH: EVQLLESGGGLVQPGGSLRLSCAASGFTFSHYMMGWVRQAPGKGLEWVSRISPSGGGTVYADSVKGRFTISRDNSKNTLYLQMNSLRAEDTAVYYCARGGNWNYISYYYYYLDVWGKGTTVTVSS
VL: DIQMTQSPSSLSASVGDRVAITCRASQSIDTYLNWYQQKPGKAPKLLIYAASKLEDGVPSRFSGSGTGTDFTLTIRSLQPEDFASYFCQQSYSSPGITFGPGTKVEIK
B5: anti-HMG1 antibody G35 (antibody, V domains shown)
VH: EVQLLESGGGLVQPGGSLRLSCAASGFTFSWYKMVWVRQAPGKGLEWVSSIVPSGGITIYADSVKGRFTISRDNSKNTLYLQMNSLRAEDTAVYYCARVQQWLGRPYFDYWGQGTLVTVSS
VL: DIQMTQSPLSLPVTPGEPASISCRSSQSLLHGNGYNYLDWYLQRPGQSPQLLIYSGSNRASGVPDRFSGSGSGTDFTLKISRVEAEDVGVYYCMQSLQSRTFGQGTKVEIK
B6: anti-HMG1 antibody S14 (antibody, V domains shown)
VH: EVQLLESGGGLVQPGGSLRLSCAASGFTFSWYETGWVRQAPGKGLEWVSGISPSGGYTQYADSVKGRFTISRDNSKNTLYLQMNSLRAEDTAVYYCARSGVGATKIFDYWGQGTLVTVSS
VL: DIQMTQSPSSLSASVGDRVTIICRANERINTYLNWYQQKPGKAPKLLISGTSSLESGVPSRFSGSGSGTEFTLSISSLQPEDFASYYCQQSYSSPYTFGQGTNLEIR

Legend:
[1] = biological target: T1, recombinant HMG1 purified from E. coli …; experiment: BIAcore, mAb immobilized, HMG1 injected, steady-state model
Protocol: HMG1 Binding Affinity via BIAcore Analysis: All experiments were performed on a BIAcore 3000 instrument (BIAcore, Inc., Piscataway, N.J.). Briefly, each mAb was immobilized to a CM5 sensor chip using a standard amino coupling chemistry. Separately a reference (control) flow cell was also prepared. Two-fold, serial dilutions of HMG1 in instrument buffer were sequentially injected at a slow flow rate over the individual mAb and reference flow-cell surfaces. Following the binding and dissociation of HMG1, the mAbs surfaces were regenerated with a brief pulse of 1M NaCl-50 mM NaOH. At the end of each experiment, the binding curves were evaluated using a steady-state model available through the BIA evaluation software supplied by BIAcore, Inc. (Piscataway, N.J.).

[2] = biological target: T2, HMG1 purified from bovine (calf) thymus; experiment: ELISA, wells coated with calf thymus HMGB1 at 5 ug/mL, antibody at 10 ug/mL, anti-human kappa/lambda-HRP, OD 490
Protocol: (§1) Binding to HMG1 vs. HMG2: Ultra high-binding ELISA plates (ThermoLab systems, #3855) were coated with either 5 ug/mL of Calf thymus HMGB1 or HMBG2 diluted in 10 mM Phosphate buffered saline (PBS), pH 7.2 and incubate overnight at 4 degrees. The plates were washed twice with Ca and Mg free PBS and 100 microliters of anti-HMGB1 antibody diluted in 10 mM PBS, pH 7.2+1% bovine serum albumin (BSA) to a final concentration of 10 ug/mL was added to each well and the plates were incubated 1 hour at room temperature. The wells were washed three times with 100 μl of PBS, pH 7.2. HRP labeled goat-anti-human IgG Kappa-chain (KPL, #14-10-10) and goat-anti-human IgG Lambda-chain (KPL, #14-10-11) were diluted in 10 mM PBS+1% BSA 1:1000 and 100 μl were added to each well and incubated for 1 hour at room temperature. The wells were then washed three times with 100 μl of PBS, pH 7.2. OPD substrate (Pierce chemical company, #34006) was prepared following the manufacturers instructions and 100 μl of prepared substrate was added to each well and the plates incubated at room temperature in the dark for 20-30 minutes. The reaction was stopped with the addition of 100 μl of 2M H₂SO₄, and the plates read on a plate reader at a wavelength of 490 nm.

[3] = biological target: T3, HMG1 B Box peptide amino acids 91-169; experiment: ELISA, wells coated with HMG1 B Box peptide 91-169 at 10 ug/ml
Protocol: (§2) The plate was then blocked with 4% milk powder dissolved in PBS at 37° C. for 1 hour. The blocking solution was removed and replaced with human anti-HMG1 antibodies at various concentrations (see FIGS. 5A-B). […] HRP activity was detected with Sureblue HRP substrate (KPL). Plates were read at 450 nm using a Kinetic Microplate Reader (Molecular Devices). […] After washing and blocking with 1% BSA in PBS, the biotinylated peptides were individually added into the avidin coated wells and incubated for 30 min at room temperature. The serial diluted antibody G4, S16 and S6 at the initial concentration at 10 μg/ml were then transferred into the wells followed by adding mouse anti human IgG-HRP conjugate (Pierce). Detection was accomplished by adding 50 μl of tetramethylbenzidine (TMB) substrate (KPL) and the absorbance was read at […].

[4] = biological target: T1, recombinant HMG1 purified from E. coli …; experiment: cell-based or functional assay
[5] = biological target: T4, HMG1 B Box peptide amino acids 150-183; experiment: ELISA, wells coated with HMG1 B Box peptide 150-183 at 10 ug/ml
Protocol: as §2

HMG2 = biological target: T5, HMG2; experiment: ELISA, wells coated with HMGB2 at 5 ug/mL, OD 490
Protocol: as §1

Row | Binder | Kd [1] [nM] | binding result [2] | binding result [3] | IC50, inhibition of rHMG1 stimulated IL-1β release from human PBMC [4] [µg/mL] | IC50, inhibition of rHMG1 stimulated IL-6 release from human PBMC [4] [nM] | IC50, inhibition of rHMG1 stimulated TNF-α release from human PBMC [4] [µg/mL] | binding result [5] | binding result (HMG2) | IC50, inhibition of rHMG1 stimulated IL-12 release from human PBMC [4] [µg/mL] | IC50, inhibition of HMG1 stimulated NO release from macrophages [4] [µg/mL]
1 | B1 | 125 | binds | no binding (tested: 10 ug/ml (log 1.00)) | 0.211 | 0.246 | 0.248 | no binding (tested: 10 ug/ml (log 1.00)) | no binding (tested: 10 ug/mL (not on the sheet)) |  | 
2 | B2 | 73 | binds | no binding (tested: 10 ug/ml (log 1.00)) | 5.91 | 1.12 | 0.796 | no binding (tested: 10 ug/ml (log 1.00)) | no binding (tested: 10 ug/mL (not on the sheet)) | 2.79 | 
3 | B3 |  | binds | no binding (tested: 10 ug/ml (log 1.00)) | 0.4 | 0.652 | 0.598 |  | no binding (tested: 10 ug/mL (not on the sheet)) |  | 20.4
4 | B4 | 67 | binds | no binding (tested: 10 ug/ml (log 1.00)) |  | 0.858 |  | no binding (tested: 10 ug/ml (log 1.00)) | no binding (tested: 10 ug/mL (not on the sheet)) |  | 
5 | B5 | 242 | binds |  |  | 0.564 |  | no binding (tested: 10 ug/ml (log 1.00)) | no binding (tested: 10 ug/mL (not on the sheet)) |  | 
6 | B6 | 205 | binds | no binding (tested: 10 ug/ml (log 1.00)) | 0.0678 | 0.191 | 0.0662 | no binding (tested: 10 ug/ml (log 1.00)) | no binding (tested: 10 ug/mL (not on the sheet)) |  | 
